# Measurements: publication PMC9323955, “Synthesis and Evaluation of Small Molecule Drug Conjugates Harnessing Thioester-Linked Maytansinoids” (Pharmaceutics, 2022)
# Legend:
# [1] = test system: HCC1806 triple-negative breast cancer cells; assay: MTS cell viability assay (72 h); format: cell-based, human; settings: HCC1806, conjugate vs DM1/DM4
# Experimental: HCC1806 cells were grown in RPMI 1640 medium, and MTS assays were performed to check cell viability. Cells (2500–3000 cells/well) were grown in flat-bottomed 96-well plates for 24 h, and then serial dilutions of the compound were added, and cells were allowed to incubate for a further 72 h. At the end of the 72-h incubation period, the medium was removed, and 100 μL of a solution including a mixture of MTS and PMS was added. The cells were incubated for 1.5 h at 37 °C in a humidified incubator with 5% CO2 to allow viable cells to convert tetrazolium salts to formazan. Conversion to formazan was measured by absorbance (490 nm) using a BioTek PowerWave-X absorbance microplate meter. The data collected were normalized using a DMSO-treated control (100% viability) and a background control (0% viability) to verify growth inhibition.
# [2] = Plasma stability, 24 h incubation with plasma (HPLC); format: in vitro ADME
# Experimental: Zn8_DM1: 0H VS. 24H in plasma.
# Zn10_DM4: 0H VS. 24H in plasma.
# Supporting Figure S1. Incubation of Linker-drug 3 and 4, conjugates Zn8_DM1 and
# Zn10_DM4, DM1 and DM4 with plasma for 24 hrs. HPLC condition is listed below. […]
# [3] = PS SPR binding assay (Biacore T200, L1 chip); settings: DOPC/DOPS (3:1, v/v) liposomes on L1 chip, 25 °C
# Experimental: Phospholipids, 1,2-dioleoyl-sn-glycero-3-phosphocholine (DOPC) and 1,2-dioleoyl-sn-glycero-3-[phosphate-L-serine] (DOPS) were obtained as chloroform solutions from Avanti Polar Lipids (Alabaster, AL, USA). These stock solutions were mixed in the specified proportions. A 0.4 mL aliquot of the lipid solution at a 10 mg/mL concentration was added to a round bottom flask and evaporated under a stream of N2 to provide a thin lipid film. The lipid films were rehydrated in PBS buffer for at least 1 h at room temperature. The resulting suspension was extruded through a 100 nm polycarbonate filter using an Avanti MiniExtruder according to the manufacturer’s instructions. Zeta potential (ZP) and liposome size distribution were recorded by dynamic light scattering (DLS) and microelectrophoresis using a Zetasizer Nano ZS instrument. The binding kinetics between conjugates and liposomes were recorded at 25 °C using a Biacore T200 biosensor equipped with an L1 sensor chip (GE Healthcare, Chicago, IL, USA). The new sensor chip was pretreated with running buffer (5% DMSO in phosphate buffered saline (PBS) at a pH of 7.4) and two consecutive 30 s pulses of 2:3 v/v 50 mM HCl/isopropanol at a flow rate of 30 μL/min. New liposome capture plates were prepared for each binding cycle. In PBS buffer, liposomes are diluted to 0.5–1 mM and captured to saturation in isolated flow cells at 2–5 μL/min (30–150 s). […]
# [4] = Pharmacokinetic study, single intravenous dose; format: in vivo, male ICR mice
# Experimental: Six-week-old male ICR mice from BioLASCO Taiwan were divided into three groups and administered intravenously at a 5 mg/kg dose. Blood samples were taken from each animal at time points 0.003, 0.083, 0.25, 0.5, 1, 2, 4, 6, 8, and 24 h and stored on ice (0–4 °C). The plasma was separated from the blood by centrifugation (in a Beckman Allegra 6R at 3000 rpm, 4 °C for 15 min) and stored under freezing conditions (−20 °C). Plasma and harvested tumor samples were stored at −80 °C until use. Fifty microliters of mouse plasma or tumor samples homogenized with ddH2O at a dilution ratio of 1:3 (w/v) with MiniBeadbeater-16 (BioSpec Products Inc., Bartlesville, OK, USA) were mixed with 100 μL of acetonitrile containing 250 ng/mL BPR0L187. The mixture was vortexed for 30 s and then centrifuged at 15,000× g for 20 min. The supernatant was transferred to a clean test tube, and 15 µL of supernatant was injected into the LC/MS/MS. Plasma samples were analyzed by liquid chromatography-tandem mass spectrometry (LC/MS/MS). The chromatography system was an Agilent 1200 series liquid chromatography system and an Agilent ZORBAX Eclipse XDB-C8 column (5 µm, 3.0 × 150 mm) connected with an MDS Sciex API4000 tandem mass spectrometer equipped with an ESI in forwarding scan mode at 600 °C. Data acquisition was performed by multiple reaction monitoring (MRM). A gradient system was used to separate the analytes from the IS. Mobile phase A was a 10 mM aqueous ammonium acetate solution containing 0.1% formic acid. Mobile phase B was acetonitrile. The gradient profile was as follows. 0.0–1.1 min, 50% B; 1.2–3.7 min, 55% B-90% B; 3.8–5.0 min, 90% B-50% B. The flow rate was 1.5 mL/min. The autosampler was set to inject 15 µL of the sample every 5 min.
# [5] = male ICR mice (n = 3), 5 mg/kg i.v.
compound,measurement,setting,value
COc1cc2cc(c1Cl)N(C)C(=O)CC(OC(=O)C(C)N(C)C(=O)CCSC(=O)c1ccc(CN(CCOCCOCCNC(=O)c3ccc(CN(CCCCOc4cc(CN(Cc5ccccn5)Cc5ccccn5)cc(CN(Cc5ccccn5)Cc5ccccn5)c4)C(=O)C4(c5ccc(Cl)cc5)CCCCC4)cc3)C(=O)C3(c4ccc(Cl)cc4)CCCCC3)cc1)C1(C)OC1C(C)C1CC(O)(NC(=O)O1)C(OC)C=CC=C(C)C2.O=[N+]([O-])[O-].O=[N+]([O-])[O-].O=[N+]([O-])[O-].O=[N+]([O-])[O-].[Zn+2].[Zn+2] (centres unmarked) [Zn8_DM1],fold attenuation in cytotoxicity relative to parent payload,[1],2.5–6 fold
same,cleavage of the maytansinoid after incubation with plasma,[2],No cleavage
same,association with PS-coated liposomes (SPR),[3],still allowed recognition
same,"AUC (0–24 h), intact conjugate",[4]; [5],"Intact Conjugate: 161,538 ng/mL·h"
same,CL,[4]; [5],0.03 L/h/kg
same,Vss,[4]; [5],0.6 L/kg
same,"AUC (0–24 h), released payload (DM1 or DM4)","[4]; male ICR mice (n = 3), 5 mg/kg i.v. of the conjugate",DM1: 500 ng/mL·h
same,AUC ratio between intact conjugate and released payload,"[4]; within 24 h in circulation, 5 mg/kg i.v.",large AUC ratio
